In US20240398804A1 (Dana-Farber, published 2024):

Key:
[1] = target: FYN (UniProt P06241 2-537, limits assumed); assay: YAP1 immunoprecipitation from colon cancer cell lysate (SW480), immunoblot
Method: (§1) The indicated colon cancer cell lines were infected with shRNAs targeting YES1 and proliferation (A) or anchorage independent growth (B) was assessed. The results were normalized to cells infected with a control shRNA targeting LacZ. (C) Subcutaneous HCT116 tumors expressing a doxycycline inducible YES1 shRNA were implanted into the cecum of nude mice and after 48 h were treated or not with doxycycline. Tumors were extracted three weeks post doxycycline treatment. (D) YES1 protein levels of tumors in (C). (E) YAP1 was immunoprecipitated from SW480 lystaes and following immunobloting the membrane was stained with the indicated antibodies. […] Following V5 IP the membrane was blotted with a phosphotyrosine antibody. […] (H) Proliferation or anchorage independent growth (I) of Hutu80 cell lines expressing YAP1 Y357F and infected with shRNAs targeting YAP1. (J) YAP1 protein levels of cells in (H) and (I).

[2] = target: SRC (endogenous, colon cancer cell lines) (UniProt P12931 2-536); assay: as above
Method: as §1

Chain of FYN (P06241 2-537 limits assumed): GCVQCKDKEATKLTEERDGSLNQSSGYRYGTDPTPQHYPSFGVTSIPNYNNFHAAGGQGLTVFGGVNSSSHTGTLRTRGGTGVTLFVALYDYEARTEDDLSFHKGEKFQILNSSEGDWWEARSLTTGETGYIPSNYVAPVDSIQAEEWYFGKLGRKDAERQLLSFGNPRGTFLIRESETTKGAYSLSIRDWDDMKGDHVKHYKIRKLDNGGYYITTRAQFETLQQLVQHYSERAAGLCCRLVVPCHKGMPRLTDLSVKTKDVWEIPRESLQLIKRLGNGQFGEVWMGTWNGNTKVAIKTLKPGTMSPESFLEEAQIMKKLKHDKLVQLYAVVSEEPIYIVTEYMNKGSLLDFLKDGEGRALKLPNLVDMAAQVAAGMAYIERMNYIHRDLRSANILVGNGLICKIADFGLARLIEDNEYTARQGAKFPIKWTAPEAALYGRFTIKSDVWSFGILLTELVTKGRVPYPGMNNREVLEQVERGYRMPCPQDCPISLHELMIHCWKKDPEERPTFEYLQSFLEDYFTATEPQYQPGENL

binding result [1]: no binding
binding result [2]: no binding
B1: YAP1 (65 kd Yes-associated protein) (other, UniProt P46937-3 1-454, looked up)
chain: MDPGQQPPPQPAPQGQGQPPSQPPQGQGPPSGPGQPAPAATQAAPQAPPAGHQIVHVRGDSETDLEALFNAVMNPKTANVPQTVPMRLRKLPDSFFKPPEPKSHSRQASTDAGTAGALTPQHVRAHSSPASLQLGAVSPGTLTPTGVVSGPAATPTAQHLRQSSFEIPDDVPLPAGWEMAKTSSGQRYFLNHIDQTTTWQDPRKAMLSQMNVTAPTSPPVQQNMMNSASAMNQRISQSAPVKQPPPLAPQSPQGGVMGGSNSNQQQQMRLQQLQMEKERLRLKQQELLRQVRPQELALRSQLPTLEQDGGTQNPVSSPGMSQELRTMTTNSSDPFLNSGTYHSRDESTDSGLSMSSYSVPRTPDDFLNSVDEMDTGDTINQSTLPSQQNRFPDYLEAIPGTNVDLGTLEGDGMNIEGEELMPSLQEALSSDILNDMESVLAATKLDKESFLTWL
notes: Endogenous protein in the co-immunoprecipitations from colon cancer cell lysates; also called WT YAP1
